For assay [1], the target named is T1, recombinant histidine-tagged human E-selectin (Sino Biologicals; 13025-H08H) (human, UniProt P16581 22-556).
T1 construct: also called recombinant human E-selectin; soluble recombinant human E-selectin
T1 sequence (looked up): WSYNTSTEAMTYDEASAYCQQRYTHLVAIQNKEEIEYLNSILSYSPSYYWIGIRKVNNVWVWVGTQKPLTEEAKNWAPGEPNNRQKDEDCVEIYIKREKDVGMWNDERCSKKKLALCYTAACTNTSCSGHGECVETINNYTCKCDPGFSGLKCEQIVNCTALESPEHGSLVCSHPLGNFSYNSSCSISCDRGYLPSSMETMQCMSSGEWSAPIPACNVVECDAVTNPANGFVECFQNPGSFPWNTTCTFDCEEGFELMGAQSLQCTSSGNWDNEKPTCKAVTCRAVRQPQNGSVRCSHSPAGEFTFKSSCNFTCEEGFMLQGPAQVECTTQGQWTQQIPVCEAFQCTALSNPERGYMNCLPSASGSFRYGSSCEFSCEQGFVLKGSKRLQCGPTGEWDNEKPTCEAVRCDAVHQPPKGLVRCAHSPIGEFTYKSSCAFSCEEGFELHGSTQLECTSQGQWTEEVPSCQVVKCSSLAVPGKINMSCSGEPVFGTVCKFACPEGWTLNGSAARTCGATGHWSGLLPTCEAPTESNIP
The experiment in a line: competition ELISA on soluble E-selectin vs sialyl Lewis A, further assays. Here is the method: (§1) Recombinant histidine-tagged E-selectin; cynomolgus monkey E-selectin (Sino Biologicals; 190169-C08H) and human E-selectin (Sino Biologicals; 13025-H08H) stock solutions were prepared to a final concentration of 3 μg/mL in phosphate buffered saline (PBS) without calcium and magnesium. One hundred μL per well of the diluted recombinant E-selectin protein was added into a Ni-NTA HisSorb 96 well plate (Qiagen, 35061) and plates were incubated on an orbital shaker at room temperature for 2 hours. Sialyl Lewis A polyacrylamide biotin, a synthetic E-selectin ligand (GlycoTech corporation 01-044), was conjugated to streptavidin HRP (horse radish peroxidase) (Ultra Streptavidin HRP, Thermo Scientific N504) and diluted in assay diluent containing 2 mM calcium chloride (BD OptEIA buffer; BD Biosciences, 555213).
(§2) Following the incubation, the plates were washed 5 times with 200 μL of wash buffer containing 2 mM of calcium chloride (50 mM TRIS [trisaminomethane]; 150 mM sodium chloride, 0.05% polysorbate 20, pH 7.4; 2 mM of calcium chloride). […] The final antibody concentration ranged from 200 nM to 0.09 nM and the final concentration of HRP conjugated Sialyl Lewis A was 5 μg/mL. […] Reactions were stopped with 100 μl of 2M sulfuric acid and absorbance read at 450 nm (Spectramax M5e). Data were analyzed and graphed using GraphPad Prism software (Version 8.0.2).
Background: An ELISA detects its analyte on a solid surface through an enzyme-linked reagent.

Assay [2] concerns the target T2, recombinant histidine-tagged cynomolgus monkey E-selectin (Sino Biologicals; 190169-C08H) (cynomolgus monkey, UniProt A0A2K5U7H9 22-554).
T2 construct: also called recombinant cynomolgus monkey E-selectin
T2 sequence: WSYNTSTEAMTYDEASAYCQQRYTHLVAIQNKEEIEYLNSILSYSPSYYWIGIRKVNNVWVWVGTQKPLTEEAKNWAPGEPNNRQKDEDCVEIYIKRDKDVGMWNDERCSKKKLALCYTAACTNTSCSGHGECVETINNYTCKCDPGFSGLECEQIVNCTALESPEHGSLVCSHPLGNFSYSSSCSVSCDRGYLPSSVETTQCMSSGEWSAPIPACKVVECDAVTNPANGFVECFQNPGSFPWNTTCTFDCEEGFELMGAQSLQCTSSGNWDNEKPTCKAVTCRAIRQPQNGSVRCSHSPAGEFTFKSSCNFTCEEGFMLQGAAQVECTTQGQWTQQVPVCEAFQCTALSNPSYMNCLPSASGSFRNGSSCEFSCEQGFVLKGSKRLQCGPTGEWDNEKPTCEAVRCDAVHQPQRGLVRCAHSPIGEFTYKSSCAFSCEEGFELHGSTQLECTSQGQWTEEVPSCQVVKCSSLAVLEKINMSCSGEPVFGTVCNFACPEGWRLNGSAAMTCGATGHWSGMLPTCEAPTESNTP
The assay is described as above. Here is the method:
as §1, §2

The target in assay [3] is T1, recombinant histidine-tagged human …. As to the kind of experiment: neutralization of sialyl Lewis A ligand binding, soluble recombinant protein, competition ELISA. Here is the method:
as §1

Assay [4] addresses T2, recombinant histidine-tagged cynomolgus …. The description is as above. Here is the method: as §1

B1: optimized anti-E-selectin antibody 1444 (antibody, human IgG1, kappa, V domains shown)
VH: EVQLVESGGGLVQPGGSLRLSCAASGYAIRSAYMHWVRQAPGKGLEWVARIDPANGNTIYVDSVTGRFTISADNAKNSAYLQMNSLRAEDTAVYYCAMDLYSTSEYWGQGTLVTVSS
VL: DIQMTQSPSSLSASVGDRVTITCKTSQNIERYLNWYQQKPGKAPKLLIYAASSLQSGVPSRFSGSGSGTDFTLTISSLQPEDFATYFCLQDNAWPLTFGQGTKVEIKR
notes: effector-null human IgG1, kappa
For B1, the concentration for half-maximal inhibition (IC50) – broadly, the concentration that gives 50% inhibition – in assay [1] is 2.91 nM; in assay [2], 2.45 nM; in assay [3], 2.87 to 3.01 nM; in assay [4] it was 2.39 to 2.91 nM.

Values taken from patent US20240076386A1 (Pfizer, published 2024).
